# Data as given in patent US20190033318A1 (UNIVERSITY OF SOUTHAMPTON, published 2019).
# Starred links: 1 amine or outer side, 2 acyl side, 3 side chain; linkers in the order of their positions; H or OH if unused. Non-standard residues stand in square brackets, D forms with d. Tyr(Me) = 4-methoxyphenylalanine (O-methyl-tyrosine), COc1ccc(C[C@H](N[*:1])C(=O)[*:2])cc1; FITC‑maleimide = fluorescein isothiocyanate-maleimide label on the cysteine; Tyr(3-NO2) = N[C@@H](Cc1ccc(O)c([N+](=O)[O-])c1)C(=O)O; Phe(4-NO2) = N[C@@H](Cc1ccc([N+](=O)[O-])cc1)C(=O)O; Phe(4-CN) = N#Cc1ccc(C[C@H](N)C(=O)O)cc1; Phe(4-Cl) = N[C@@H](Cc1ccc(Cl)cc1)C(=O)O; Phe(4-F) = N[C@@H](Cc1ccc(F)cc1)C(=O)O; Phe(4-Me) = Cc1ccc(C[C@H](N)C(=O)O)cc1; Cha = N[C@@H](CC1CCCCC1)C(=O)O; Pal = not defined here
# Key:
# [1] = biological target: T1, 2α PASB (HIF-2α PASB domain, 240-350) (UniProt Q99814 240-350, labelled with NT-647-NHS dye in MST; 15N (and 13C 15N) labelled in NMR); assay: MST, HIF-2α PASB domain
# T1 construct: range 240-350; also called PAS B domain of HIF-2α; not shown: His6 tag of vector pET28, then Met
# [2] = biological target: T2, HIF-2α (construct not given) (UniProt Q99814 1-360, limits assumed); assay: HIF-2 ELISA, inhibition of HIF-2α/HIF-1β dimerisation
# T2 construct: also called HIF-2 ELISA
# Protocol: (§1) 25 μL of His-tagged HIF-α protein (either Trx-1α, Trx-2α, 1α PASB, or 2α PASB) at 0.1 μM in HIF assay buffer were added to individual wells of a Pierce Ni²⁺-coated 96-well plate (Thermo) in triplicate. The plate was rocked gently at room temperature for 1 hr, before washing with 3×200 μL assay buffer (5 min incubation per wash). 25 μL of compounds and/or DMSO at the stated concentrations were added to the plate and allowed to equilibrate for 30 min prior to the addition of 25 μL of GST-1β at 0.2 μM in assay buffer for 1 hr. For conditions in which no compound or DMSO were used, GST-1β was added as a 0.1 μM solution. After incubation with GST-1β, the wells were washed with 3×200 μL assay buffer then 1×200 μL PBS. The wells were then incubated with 100 μL mouse α-GST antibody (Thermo, MS-707-P) at a 1/1000 dilution in PBS supplemented with 0.1% Tween-20 (PBST) and 2% non-fat powdered milk (Marvel) for 1 hr, followed by 3×200 μL washed with PBS. 100 μL of secondary HRP-conjugated α-mouse antibody (GE Healthcare) was added at a 1/6000 dilution in 2% milk/PBST for 1 hr, then washed with 3×200 μL PBS. Wells were incubated with 100 μL of 1-Step Ultra TMB-ELISA solution (Thermo) until a blue colour developed (typically 10-15 min) and the reaction was stopped by the addition of 100 μL of a ⅕ dilution of conc. H₂SO₄, which turned the solution yellow. Absorbance was read at 450 nm using a Tecan Infinite M200 Pro plate reader. Data were fitted and IC₅₀ values determined by non-linear regression using GraphPad Prism 6.
# [3] = biological target: T3, HIF-1α (construct not given) (UniProt Q16665 1-350, limits assumed); assay: HIF-1 ELISA, inhibition of HIF-1α/HIF-1β dimerisation
# T3 construct: also called HIF-1 ELISA
# Protocol: as §1
# [4] = biological target: T4, 1α PASB (HIF-1α PASB domain, 238-349) (UniProt Q16665 238-349, labelled with NT-647-NHS dye in MST); assay: MST, HIF-1α PASB domain
# T4 construct: range 238-349; not shown: His6 tag of vector pET28, then Met
# [5] = biological target: T2, HIF-2α (construct not stated at the …); assay: HIF-2 ELISA, inhibition of HIF-2α/HIF-1β dimerisation; remark: listed apart in the source
# [6] = biological target: T1, 2α PASB (HIF-2α PASB domain, 240-350); assay: MST, peptide titrated into labelled PAS-B domain of HIF-2α
# [7] = biological target: T4, 1α PASB (HIF-1α PASB domain, 238-349); assay: MST, peptide titrated into labelled PAS-B domain of HIF-1α
# [8] = biological target: T5, 1β PASB (HIF-1β PASB domain, 356-474) (UniProt P27540 356-474); assay: thermal shift assay, 1 mM peptide
# T5 construct: range 356-474; not shown: His6 tag of vector pET28
# Protocol: (§2) Thermal denaturation of HIF proteins was performed in 20 μL reactions in triplicate using a Bio-Rad CFX Connect Real-Time System. Proteins were used at either 5 μM (Trx-1α, Trx-2α and GST-1β) or 15 μM (His-tagged PASB domains) in HIF assay buffer, with 10 mM DTT and SYPRO orange dye (Life Technologies) at a final concentration of 8×(relative to 5000×stock), and supplemented with either DMSO or compound dissolved in DMSO at the stated concentrations. The reaction plate was assembled on ice, then transferred to the pre-chilled thermal cycler, held at 10° C. for 5 min (heated lid, 105° C.), then the temperature ramped to 95° C. Fluorescence was recorded at 0.5° C. increments, holding for 5 sec at each temperature. Data were plotted using GraphPad Prism 6, and melting temperatures calculated using the first derivative method in which the peak (i.e. the steepest transition between data points) represents the point at which 50% of the protein sample is denatured. Errors are quoted as the inherent error associated with the first derivative of the data, i.e. ±0.25° C. for Tₘ values and ±0.5° C. for ΔTₘ values.
# [9] = biological target: T6, Trx-1α (thioredoxin-tagged HIF-1α 1-350, bHLH-PASA-PASB) (UniProt Q16665 1-350); assay: thermal shift assay, 1 mM peptide
# T6 construct: range 1-350; not shown: Thioredoxin-His6 tag of vector pET32
# Protocol: as §2
# [10] = biological target: T4, 1α PASB (HIF-1α PASB domain, 238-349); assay: thermal shift assay, 1 mM peptide
# Protocol: as §2
# [11] = biological target: T7, Trx-2α (thioredoxin-tagged HIF-2α 1-360, bHLH-PASA-PASB) (UniProt Q99814 1-360); assay: thermal shift assay, 1 mM peptide
# T7 construct: range 1-360; not shown: Thioredoxin-His6 tag of vector pET32
# Protocol: as §2
# [12] = biological target: T1, 2α PASB (HIF-2α PASB domain, 240-350); assay: thermal shift assay, 1 mM peptide
# Protocol: as §2
# [13] = biological target: T4, 1α PASB (HIF-1α PASB domain, 238-349); assay: MST, peptide titrated into fluorescently labelled 1α PASB
# Protocol: (§3) Microscale thermophoresis (MST) was performed to determine Kd of peptide binding to fluorescently labelled HIF-1α/2α PASB domains.
# (§4) 0.5 mL of 1α or 2α PASB protein stocks in HIF storage/assay buffer were dialysed against 1 L of MST labelling buffer (100 mM NaHCO₃ pH 8, 150 mM NaCl and 5% glycerol) for 1.5 hr at 4° C., then against 1 L of fresh labelling buffer at 4° C. overnight. 100 μL of each dialysed protein diluted to 10 μM were incubated with 100 μL of 30 μM NT-647-NHS dye (NanoTemper protein labelling kit) for 20 min in the dark, then exchanged into 650 μL HIF assay buffer supplemented with 0.05% Tween-20 using the supplied gravity flow purification columns. A dilution series of cyclo-CRVIIF (SEQ ID NO 4) or alanine scan analogues (in HIF assay buffer, 10% DMSO) was mixed with equal volumes of labelled 1α PASB or 2α PASB at 100 nM and allowed to equilibrate for 10 min. Samples were loaded into hydrophilic capillaries and, after optimising the power, MST was performed using a Monolith […] instrument (NanoTemper). Data were analysed using NT Analysis Software using the Temperature Jump analysis mode.
# [14] = biological target: T7, Trx-2α (thioredoxin-tagged HIF-2α …); assay: competition ELISA: His-tagged Trx-2α on Ni plate, peptide titrated, binding of GST-1β (blocked partner) detected with anti-GST, A450
# Protocol: (§5) IC₅₀ values for the compound=3.7 μM/8.8 μM for 1α/2α.
# as §1, with “Wells were incubated with 100 μL of 1-Step Ultra TMB-ELISA solution (Thermo) until a blue colour developed (typically 10-15 min) and the reaction was stopped by the addition of 100 μL of a ⅕ dilution of conc. H₂SO₄, which turned the solution yellow.” left out
# [15] = biological target: T1, 2α PASB (HIF-2α PASB domain, 240-350); assay: MST, peptide titrated into fluorescently labelled 2α PASB
# Protocol: as §3, §4
# [16] = biological target: T6, Trx-1α (thioredoxin-tagged HIF-1α …); assay: competition ELISA: His-tagged Trx-1α on Ni plate, peptide titrated, binding of GST-1β (blocked partner) detected with anti-GST, A450
# Protocol: as §5
# as §1, with “Wells were incubated with 100 μL of 1-Step Ultra TMB-ELISA solution (Thermo) until a blue colour developed (typically 10-15 min) and the reaction was stopped by the addition of 100 μL of a ⅕ dilution of conc. H₂SO₄, which turned the solution yellow.” left out
# [17] = biological target: T4, 1α PASB (HIF-1α PASB domain, 238-349); assay: competition ELISA: 1α PASB on Ni plate, peptide titrated, blocked partner GST-1β; the value stands in the panel without a name, the ELISA fits give IC50; the fall is only partial
# Protocol: as §1, with “Wells were incubated with 100 μL of 1-Step Ultra TMB-ELISA solution (Thermo) until a blue colour developed (typically 10-15 min) and the reaction was stopped by the addition of 100 μL of a ⅕ dilution of conc. H₂SO₄, which turned the solution yellow.” left out
# T2 sequence (Q99814 1-360 limits assumed): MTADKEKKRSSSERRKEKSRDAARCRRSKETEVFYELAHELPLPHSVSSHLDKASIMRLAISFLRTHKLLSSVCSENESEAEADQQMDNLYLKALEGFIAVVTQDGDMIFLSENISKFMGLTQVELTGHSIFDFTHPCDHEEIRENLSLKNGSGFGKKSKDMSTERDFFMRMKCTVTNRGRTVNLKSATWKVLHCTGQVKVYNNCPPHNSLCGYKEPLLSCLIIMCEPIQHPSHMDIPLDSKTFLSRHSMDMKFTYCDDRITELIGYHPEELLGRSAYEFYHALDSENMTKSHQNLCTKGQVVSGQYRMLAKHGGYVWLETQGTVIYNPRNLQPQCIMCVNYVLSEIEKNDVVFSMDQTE
# T1 sequence (Q99814 240-350): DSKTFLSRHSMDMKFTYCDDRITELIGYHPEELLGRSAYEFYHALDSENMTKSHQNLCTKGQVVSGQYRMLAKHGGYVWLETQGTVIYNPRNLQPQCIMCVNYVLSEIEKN
# T7 sequence (Q99814 1-360): as the sequence (Q99814 1-360 limits assumed) above
# T5 sequence (P27540 356-474): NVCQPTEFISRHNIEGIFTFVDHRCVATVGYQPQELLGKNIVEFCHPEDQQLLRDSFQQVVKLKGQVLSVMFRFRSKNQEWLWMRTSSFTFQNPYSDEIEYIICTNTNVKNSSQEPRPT
Kd [1] [µM],IC50 [2] [µM],IC50 [3] [µM],Kd [4] [µM],Binder,also measured
7.41,11.5,37.5,6.84,cyclo(CRLLI[Phe(4-F)]) (also called CRLLIX where X = 4-F-F) [CRLLI(4-F-F)],
45.3,212,294,69.2,"cyclo(CRLLI[Pal]) (not fully specified; printed as CRLLI(Pal); reading uncertain, also called CRLLIX where X = Pal) [CRLLI(Pal)]",
,,,,cyclo(C(FITC‑maleimide)RLLIF) [FITC-CRLLIF (SEQ ID NO 3)],Activity as measured by a HIF-2 ELISA [5]: 0.47 µM
9.46,6.27,44.2,10,cyclo(CRLLI[Phe(4-CN)]) (also called CRLLIX where X = 4-CN-F) [CRLLI(4-CN-F)],
5.27,6.07,11.9,9.61,cyclo(CRLLI[Phe(4-Me)]) (also called CRLLIX where X = 4-Me-F) [CRLLI(4-Me-F)],Kd [6]: 5.4 µM; Kd [7]: 11.4 µM
4.5,15.3,36.7,10.8,"cyclo(CRLLI[Tyr(Me)]) (SMILES CC[C@H](C)[C@@H]1NC(=O)[C@H](CC(C)C)NC(=O)[C@H](CC(C)C)NC(=O)[C@H](CCCNC(=N)N)NC(=O)[C@H](CS)NC(=O)[C@H](Cc2ccc(OC)cc2)NC1=O, also called CRLLIX where X = 4-MeO-F) [CRLLI(4-MeO-F)]",
49,22.7,19.5,90.7,"cyclo(CRLLI[Tyr(3-NO2)]) (SMILES CC[C@H](C)[C@@H]1NC(=O)[C@H](CC(C)C)NC(=O)[C@H](CC(C)C)NC(=O)[C@H](CCCNC(=N)N)NC(=O)[C@H](CS)NC(=O)[C@H](Cc2ccc(O)c([N+](=O)[O-])c2)NC1=O, also called CRLLIX where X = 3-NO2-Y) [CRLLI(3-NO2-Y)]",
,,,,"SGWEMIQRR (cyclic peptide (first amino acid joined to the last), One of the 4 cyclic peptide hits) [cyclo-SGWEMIQRR (SEQ ID NO 5)]",ΔTm [8]: -0.5 ° C.; ΔTm [9]: -2.5 ° C.
5.76,12,27.8,3.73,cyclo(CRLLI[Phe(4-NO2)]) (also called CRLLIX where X = 4-NO2-F) [CRLLI(4-NO2-F)],
15.4,98.3,71.3,36.9,"CRLLIF (cyclic peptide (cyclo-, first amino acid joined to the last), One of the 4 cyclic peptide hits of the SICLOPPS screen; made by solid phase synthesis; also called CRLLIX where X = F) [cyclo-CRLLIF (SEQ ID NO 3)]",ΔTm [8]: -1 ° C.; ΔTm [9]: 0.5 ° C.; ΔTm [10]: -2 ° C.; ΔTm [11]: -4 ° C.; ΔTm [12]: -4 ° C.; Kd [13]: 13.5 µM; IC50 [14]: 186 µM; Kd [15]: 59.6 µM; IC50 [16]: 102 µM
9.6,,,7.7,CRLLIW (cyclic analogue of cyclo-CRLLIF),
5.63,19.8,25.5,1.37,cyclo(CRLLI[Cha]) (also called CRLLIX where X = Cha) [CRLLI(Cha)],Kd [6]: 5.8 µM; Kd [7]: 4.1 µM
4.15,4.88,13.2,2.8,cyclo(CRLLI[Phe(4-Cl)]) (also called CRLLIX where X = 4-Cl-F) [CRLLI(4-Cl-F)],Kd [6]: 4.2 µM
,,,,cyclo(C(FITC‑maleimide)KLIIF) [FITC-CKLIIF (SEQ ID NO 2)],Activity as measured by a HIF-2 ELISA [5]: 0.77 µM
,,,,"CRAIIF (also called alanine scan peptide of CRVIIF, position 3 (V to A))",IC50 [17]: 51 µM
